According to paper PMC7544224 (Nucleic Acids Research, 2020):
Numbering of substitutions follows the chain as printed.

B1: YoeB toxin with N-terminal 6xHis tag (pET28a-yoeB) (natural protein)
chain: MARLNITFSPQAFEDYKYFQQNNKKMVKKINELLKSIDRNGALEGIGKPEKLKSNLTGYYSRRINHEHRLVYTVDDNHIKIASCKYHY
B2: YefM antitoxin, expressed alone (natural protein, S. aureus (NCTC8325 strain), UniProt A0A0B4ND47 1-83, looked up)
chain: MIIKNYSYARQNLKALMTKVNDDSDMVTVTSTDDKNVVIMSESDYNSMMETLYLQQNPNNAEHLAQSIADLERGKTITKDIDV
B3: promoter flank mutant (ATTGTACA to AGCGTACG) (dsDNA)
DNA 1: TTAGCGTACGGATATGCGTACGCTTG
DNA 2: CAAGCGTACGCATATCCGTACGCTAA
B4: promoter core mutant (ATTGTACA to ATTTTAAA) (dsDNA)
DNA 1: TTATTTTAAAGATATTTTTAAAATTG
DNA 2: CAATTTTAAAAATATCTTTAAAATAA

Columns and labels:
[1] = target: T1, YefM antitoxin without tag (pET22b-yefM), as in the heterohexamer (S. aureus (NCTC8325 strain), UniProt A0A0B4ND47 1-83); assay: SEC-MALS
T1 sequence (looked up): B2 chain

SEC-MALS = target: the molecule itself; assay: SEC-MALS
[2] = target: T2, YefM (antitoxin; in heterohexamer, YoeB2-YefM4);YoeB (toxin; in heterohexamer, YoeB2-YefM4) (Staphylococcus aureus …, UniProt Q2G285;Q2G286 1-83;1-88, |); assay: ITC
T2 sequence 1: B2 chain
T2 sequence 2: B1 chain with N23D

Binder | binding result [2] | also measured
B1 |  | stoichiometry N [1]: 0.5 YoeB per YefM
B2 |  | stoichiometry N (SEC-MALS): 2
B3 | no binding | 
B4 | no binding | 
